In data set [1] the test system is CC(=O)N[C@H]1[C@@H](OP(=O)(O)OP(=O)(O)OC[C@H]2O[C@@H](n3ccc(=O)[nH]c3=O)[C@H](O)[C@@H]2O)O[C@H](CO)[C@@H](O)[C@@H]1O. The experiment in a line: purified protein. As to conditions: donor hydrolysis reaction without polyRboP acceptor; varied UDP-GlcNAc.
Data set [2] deals with the molecule itself. In words: crystal structure.
Data set [3] concerns the molecule itself. In words: SEC-MALS; Superdex 200 HR 10/30, 30 mM Hepes pH 7.3, 500 mM NaCl, 5% glycerol; full-length TarS run at 25 μM.

As a reminder, the Km is the substrate concentration at which the rate is half of its maximum. Usually stoichiometry N stands for a count of units in the complex or per binding partner.

“TarS1-349 (Staphylococcus aureus subsp. aureus Mu50)”: the Michaelis-Menten constant (Km) in data set [1] was determined as 21 ± 2 µM.

For the molecule “full-length TarS (TarS 1-573; wild-type) (Staphylococcus aureus subsp. aureus Mu50)”, the Km in data set [1] is 45 ± 3 µM.

B1: TarS_(217-573) (domain or fragment)
chain: VSPEDFYEVMRLIAVEILNADLEEAHKDQILAEFLNRHFSFSRTNGFSLKVKLEEQPQWINALGDFIQAVPERVDALVMSKLRPLLHYARAKDIDNYRTVEESYRQGQYYRFDIVDGKLNIQFNEGEPYFEGIDIAKPKVKMTAFKFDNHKIVTELTLNEFMIGEGHYDVRLKLHSRNKKHTMYVPLSVNANKQYRFNIMLEDIKAYLPKEKIWDVFLEVQIGTEVFEVRVGNQRNKYAYTAETSALIHLNNDFYRLTPYFTKDFNNISLYFTAITLTDSISMKLKGKNKIILTGLDRGYVFEEGMASVVLKDDMIMGMLSQTSENEVEILLSKDIKKRDFKNIVKLNTAHMTYSLK
notes: source: limited thermolysin proteolysis of purified full-length TarS (from E. coli Rosetta (DE3)), crystallised directly
B1: the binding result in data set [2] is reported as “binds”.

B2: Staphylococcus aureus TarS, full-length protein (1-573) (enzyme)
chain: MMKFSVIVPTYNSEKYITELLNSLAKQDFPKTEFEVVVVDDCSTDQTLQIVEKYRNKLNLKVSQLETNSGGPGKPRNVALKQAEGEFVLFVDSDDYINKETLKDAAAFIDEHHSDVLLIKMKGVNGRGVPQSMFKETAPEVTLLNSRIIYTLSPTKIYRTALLKDNDIYFPEELKSAEDQLFTMKAYLNANRISVLSDKAYYYATKREGEHMSSAYVSPEDFYEVMRLIAVEILNADLEEAHKDQILAEFLNRHFSFSRTNGFSLKVKLEEQPQWINALGDFIQAVPERVDALVMSKLRPLLHYARAKDIDNYRTVEESYRQGQYYRFDIVDGKLNIQFNEGEPYFEGIDIAKPKVKMTAFKFDNHKIVTELTLNEFMIGEGHYDVRLKLHSRNKKHTMYVPLSVNANKQYRFNIMLEDIKAYLPKEKIWDVFLEVQIGTEVFEVRVGNQRNKYAYTAETSALIHLNNDFYRLTPYFTKDFNNISLYFTAITLTDSISMKLKGKNKIILTGLDRGYVFEEGMASVVLKDDMIMGMLSQTSENEVEILLSKDIKKRDFKNIVKLNTAHMTYSLK
notes: also called full-length TarS; wild-type TarS; source: E. coli Rosetta (DE3), pET41b, purified (Heparin HP, Superdex 200)
Regarding B2, in data set [3], the “stoichiometry N” value is 3.

The values are drawn from publication PMC5156392, “Structure and Mechanism of Staphylococcus aureus TarS, the Wall Teichoic Acid β-glycosyltransferase Involved in Methicillin Resistance” (PLoS Pathogens, 2016).
